Measured values as given in paper doi:10.1101/2025.11.17.688911 (2025).

Target: surface-immobilized biotinylated microtubules (pig, UniProt Q2XVP4 1-451; Q767L7 1-444, biotin (site not stated) | biotin (site not stated))
Sequence (Q2XVP4 whole entry, chain 1 of 2): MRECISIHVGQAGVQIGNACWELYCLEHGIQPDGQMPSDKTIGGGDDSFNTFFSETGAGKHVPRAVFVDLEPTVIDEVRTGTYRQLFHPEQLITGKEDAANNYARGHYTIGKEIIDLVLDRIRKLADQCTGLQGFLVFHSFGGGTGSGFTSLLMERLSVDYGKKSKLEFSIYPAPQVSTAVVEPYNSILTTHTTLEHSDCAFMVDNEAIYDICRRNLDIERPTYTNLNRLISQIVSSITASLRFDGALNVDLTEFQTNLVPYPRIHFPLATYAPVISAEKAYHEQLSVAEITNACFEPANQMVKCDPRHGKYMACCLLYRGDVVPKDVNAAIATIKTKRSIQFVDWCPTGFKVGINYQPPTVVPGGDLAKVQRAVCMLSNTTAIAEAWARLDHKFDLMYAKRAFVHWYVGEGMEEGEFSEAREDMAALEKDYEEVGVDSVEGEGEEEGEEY
Sequence (Q767L7 other isoform, or with tags, fused parts or gaps, chain 2 of 2): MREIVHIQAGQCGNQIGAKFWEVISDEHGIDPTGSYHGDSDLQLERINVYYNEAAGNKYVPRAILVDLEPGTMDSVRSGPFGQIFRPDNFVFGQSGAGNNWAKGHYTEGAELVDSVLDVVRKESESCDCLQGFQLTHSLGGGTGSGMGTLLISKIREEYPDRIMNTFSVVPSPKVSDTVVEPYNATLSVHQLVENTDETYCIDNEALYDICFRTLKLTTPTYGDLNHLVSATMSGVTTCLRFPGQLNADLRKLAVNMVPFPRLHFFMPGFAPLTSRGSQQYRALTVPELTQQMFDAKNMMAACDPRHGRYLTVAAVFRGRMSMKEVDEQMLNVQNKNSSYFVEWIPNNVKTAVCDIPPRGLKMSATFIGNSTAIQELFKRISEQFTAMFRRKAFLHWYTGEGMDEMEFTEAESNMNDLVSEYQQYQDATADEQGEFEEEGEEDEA

B1: MAP9-MTBD (Human MAP9 (302–647)::GFP::strepII) (domain or fragment)
chain: SKESQVTADDLEEEKAKAELIMDDDRTVDPLLSKSQSILISTSATASSKKTIEDRNIKNKKSTNNRASSASARLMTSEFLKKSSSKRRTPSTTTSSHYLGTLKVLDQKPSQKQSIEPDRADNIRAAVYQEWLEKKNVYLHEMHRIKRIESENLRIQNEQKKAAKREEALASFEAWKAMKEKEAKKIAAKKRLEEKNKKKTEEENAARKGEALQAFEKWKEKKMEYLKEKNRKEREYERAKKQKEEETVAEKKKDNLTAVEKWNEKKEAFFKQKEKEKINEKRKEELKRAEKKDKDKQAINEYEKWLENKEKQERIERKQKKRHSFLESEALPPWSPPSRTVFAKVF
Binder B1 has a Kd of 43 nM.
